Test [1] addresses T1, histidine-tagged human Siglec-7 (NovoProtein) (human, UniProt Q9Y286 19-353).
T1 construct: Bought protein; also called recombinant human Siglec-7; recombinant Siglec-7; not shown: histidine tag
The test is described as follows: BLI, antibody captured. An outline of the steps:
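Antibodies captured on anti-human or anti-mouse IgG Fc biosensors; His-tagged human Siglec-7 flowed at 0–100 nM (200 s association, 900 s dissociation). ka and kd from 1:1 multi-concentration fit; apparent KD = kd/ka.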
A general note: Biolayer interferometry detects binding as a change in optical thickness at a sensor tip.

Test [2] concerns the target T1, histidine-tagged human Siglec-7 …. As to the kind of experiment: BLI (ForteBio), antibody captured; Table 2 experiment; antibody captured on anti-IgG Fc Biosensors, 0-100 nM His-tagged Siglec-7. On the procedure:
(§1) In this assay, the humanized antibodies were compared directly to S7AB. Briefly, the antibodies were captured on anti-human or anti-mouse IgG Fc Biosensors (Pall ForteBio). Varying concentrations (0-100 nM) of histidine-tagged human Siglec-7 (NovoProtein) were then bound to the captured anti-Siglec-7 surface (200 s association time, 900 s dissociation time). Multi-concentration kinetic analysis was performed using a 1:1 interaction model to extract association and dissociation rate constants (kₐ and kd, respectively) for each antibody. Apparent affinity constants (KD) were calculated from the ratio kd/kₐ.

Test [3] concerns the target T2, human Siglec-7 on primary human monocyte-derived dendritic cells (human, UniProt Q9Y286 19-467). The test is described as follows: cell-based or functional assay.
The target in test [4] is T1, histidine-tagged human Siglec-7 …. The test is described as follows: BLI (ForteBio), antibody captured. Here is the method:
as §1

Test [5] concerns the target T2, human Siglec-7 on primary human …. The test is described as follows: flow cytometry, primary human dendritic cells. Here is the method:
The 12 humanized antibodies of S7AB were evaluated for binding to primary dendritic cells by flow cytometry. Monocytes were isolated from blood from healthy human donors using the RosetteSep™ monocyte isolation antibody cocktail (StemCell Technologies). The isolated monocytes were differentiated into dendritic cells with 100 ng/mL GM-CSF and 100 ng/mL IL-4 (Peprotech). Dendritic cells were incubated with dilutions of the anti-Siglec-7 antibodies for 30 minutes on ice in the dark, followed by a 30-minute incubation with a fluorescently-conjugated anti-human IgG secondary antibody. Cells were washed twice in FACS buffer (PBS+2% FBS, 2 mM EDTA), and flow cytometry was performed on a BD FACS Canto. Data were analyzed using FlowJo software (Ashland, Oreg.).

Test [6] has the same target. As to the kind of experiment: cell-based or functional assay. The source holds these as a separate data set.

Changes are numbered by the printed parent chain. Read-outs that look alike come from different tables or passages of the source.

These results are taken from patent publication US20210246204A1 (Alector, published 2021).

T1 sequence (Q9Y286 19-353 limits assumed): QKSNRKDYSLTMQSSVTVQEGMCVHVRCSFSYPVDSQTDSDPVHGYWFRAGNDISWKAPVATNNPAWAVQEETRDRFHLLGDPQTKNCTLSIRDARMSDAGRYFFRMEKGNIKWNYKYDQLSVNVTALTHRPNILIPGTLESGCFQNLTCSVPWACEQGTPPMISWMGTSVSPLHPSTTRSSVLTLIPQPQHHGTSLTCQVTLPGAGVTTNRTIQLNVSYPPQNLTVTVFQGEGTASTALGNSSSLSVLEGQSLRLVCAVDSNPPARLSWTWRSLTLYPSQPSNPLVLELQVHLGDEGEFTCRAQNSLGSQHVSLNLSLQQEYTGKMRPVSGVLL
T2 sequence (Q9Y286 19-467): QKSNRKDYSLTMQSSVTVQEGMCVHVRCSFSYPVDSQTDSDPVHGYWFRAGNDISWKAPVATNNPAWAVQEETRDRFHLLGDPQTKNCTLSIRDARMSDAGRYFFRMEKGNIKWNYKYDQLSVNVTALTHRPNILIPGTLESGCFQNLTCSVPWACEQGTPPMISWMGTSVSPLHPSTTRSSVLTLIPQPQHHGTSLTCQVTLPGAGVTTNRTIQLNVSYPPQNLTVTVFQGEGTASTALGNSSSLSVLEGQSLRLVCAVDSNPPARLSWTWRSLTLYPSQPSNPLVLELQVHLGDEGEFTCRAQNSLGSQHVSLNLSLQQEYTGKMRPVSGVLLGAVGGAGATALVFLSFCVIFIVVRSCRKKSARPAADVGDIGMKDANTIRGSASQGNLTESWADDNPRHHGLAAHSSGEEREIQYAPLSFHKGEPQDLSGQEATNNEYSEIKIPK

B1: S7AB-H8 (antibody, V domains shown)
VH: QVQLVQSGAEVKKPGASVKISCKASGYAFTNCWMNWVRQAPGQGLEWIGRIFPGNGHTNYAQKFQGRATLTEDTSTSTAYMELSSLRSEDTAVYYCARDYSDYYFDYWGQGTLVTVSS
VL: DIQMTQSPSSLSASVGDRVTITCRASQDINTYLNWYQQKPGKAPKLLIYYTSRLHSGVPSRFSGSGSGTDYTLTISSLQPEDFATYYCQQGNTLPWTFGQGTKLEIK
notes: also called parental humanized antibody
For orientation: Kd means the free concentration of one partner at which half of the binding sites on the other are occupied at equilibrium, for simple one-to-one binding. A low value points to a tighter complex. As usually defined, the koff is the rate constant with which the complex falls apart. Higher therefore signals fast dissociation. Broadly, the kon is the second-order rate constant of association. Read a low kon as slow association. As a reminder, the EC50 is the concentration at which the effect is half-maximal. Higher therefore signals a less potent agent. In test [1], B1 came in with a Kd of 1.05 nM, a koff of 0.000174 s⁻¹ and a kon of 166000 M⁻¹ s⁻¹. In addition, the Kd in test [2] is 0.86 nM. In addition, the “Receptor downregulation, (EC50) (pM)” value in test [3] came out at 395 pM. In addition, in test [4], the koff amounted to 0.000125 s⁻¹ and the kon amounted to 145000 M⁻¹ s⁻¹. Moreover, the EC50 in test [5] is 1.5 nM. Further, in test [6], the “Fold increase in potency compared to Chimeric Ab” value is 3 fold; the “Maximal downregulation (% Siglec-7 remaining)” value was determined as 18.3%; the “Receptor downregulation, (EC50) (pM)” value worked out at 340 pM.

B2: S7AB-H9 (antibody, V domains shown)
VH: B1 VH
VL: B1 VL with I2V
As to B2, the “Receptor downregulation, (EC50) (pM)” value in test [3] amounted to 432 pM. Besides, in test [4], binding was characterised by a dissociation constant (Kd) of 0.74 nM, the koff was 0.000112 s⁻¹ and the kon stood at 150000 M⁻¹ s⁻¹. It took 1.5 nM to reach a half-maximal effect in test [5] (EC50).

B3: S7AB-H12 (antibody, V domains shown)
VH: B1 VH with V114L
VL: B1 VL with I2V
For the molecule B3, the “Receptor downregulation, (EC50) (pM)” value in test [3] was determined as 447 pM. Also, in test [4], the Kd was 1.01 nM, the koff came out at 0.000152 s⁻¹ and the kon worked out at 150000 M⁻¹ s⁻¹. Further, the midpoint of the response in test [5], the EC50, lay at 5.6 nM.

B4: S7AB-H11 (antibody, V domains shown)
VH: B1 VH with V114L
VL: B1 VL
As to B4, the “Receptor downregulation, (EC50) (pM)” value in test [3] was determined as 411 pM. In test [4], this molecule came in with a dissociation constant Kd of 1.07 nM, a dissociation rate constant (koff) of 0.000172 s⁻¹ and a kon of 160000 M⁻¹ s⁻¹. Moreover, the EC50 in test [5] stood at 1.2 nM.
